Data: FireProtDB (doi:10.1021/cb5003762)
“And” between values parts separate entries of the source, which are not always exact repeats. Equal entries are not always repeated.

B1: Histone deacetylase 8, Q9BY41 (parent)
chain: MEEPEEPADSGQSLVPVYIYSPEYVSMCDSLAKIPKRASMVHSLIEAYALHKQMRIVKPKVASMEEMATFHTDAYLQHLQKVSQEGDDDHPDSIEYGLGYDCPATEGIFDYAAAIGGATITAAQCLIDGMCKVAINWSGGWHHAKKDEASGFCYLNDAVLGILRLRRKFERILYVDLDLHHGDGVEDAFSFTSKVMTVSLHKFSPGFFPGTGDVSDVGLGKGRYYSVNVPIQDGIQDEKYYQICESVLKEVYQAFNPKAVVLQLGADTIAGDPMCSFNMTPVGIGKCLKYILQWQLATLILGGGGYNLANTARCWTYLTGVILGKTLSSEIPDHEFFTAYGPDYVLEITPSCRPDRNEPHRIQQILNYIKGNLKHVV

Variants of: B1
Conditions: Homo sapiens; pH 7.5; Thermal; fluorescence; Hepes 25 mM; KCl 150 mM; structure 2V5W; whole UniProt chain shown

Row | Variant | Tm
1 | A188T | 46.5 °C and 50.6 °C
2 | C153F | 50.6 °C
